Broadly, the EC50 (read off the curve) is the concentration needed to bring the measured effect to its halfway point.

For the assay, the target named is T1, recombinant human IgE, SE44 (human, UniProt P01854-1 1-428).
T1 construct: also called monoclonal human IgE (SE44); biotinylated SE44
As to the kind of experiment: ELISA titration on plate-coated SE44 (human IgE); Fab detected with biotin-sheep anti-human Fd and Neutra-avidin-AP (Example 6).

T1 sequence (P01854 other isoform, or with tags, fused parts or gaps): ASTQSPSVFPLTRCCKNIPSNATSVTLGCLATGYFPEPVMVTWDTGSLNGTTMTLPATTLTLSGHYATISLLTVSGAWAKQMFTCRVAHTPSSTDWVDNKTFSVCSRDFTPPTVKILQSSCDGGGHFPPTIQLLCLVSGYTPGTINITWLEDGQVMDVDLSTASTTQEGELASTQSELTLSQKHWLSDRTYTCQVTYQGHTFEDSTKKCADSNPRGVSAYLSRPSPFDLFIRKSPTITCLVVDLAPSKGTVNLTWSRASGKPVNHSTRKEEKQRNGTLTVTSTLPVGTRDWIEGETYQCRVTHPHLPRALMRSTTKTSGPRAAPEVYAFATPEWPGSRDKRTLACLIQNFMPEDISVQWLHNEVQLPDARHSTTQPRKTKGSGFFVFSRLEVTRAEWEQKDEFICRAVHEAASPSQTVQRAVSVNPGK
Procedure: Coating solution was removed and the plates were blocked with 200 uL/well 3% BSA/PBS for 1 hour at 37° C.
The plates were washed 4× with PBS/0.1% TWEEN® (PBST). 50 uL/well Fab (from 15 mL periplasmic prep) was added starting with a dilution of 1:2 and diluting 3 fold serially in 0.5% BSA/PBS and 0.05% TWEEN®20. Plates were incubated for 2 hours at room temperature.

B1: humanized Fab clone 136 (Fab, V domains shown)
VH: QVQLVQSGAEVMKPGSSVKVSCKASGYTFSMYWLEWVRQAPGHGLEWMGEISPGTFTTNYNEKFKARVTFTADTSTSTAYMELSSLRSEDTAVYYCARFSHFSGSNYDYFDYWGQGTLVTVSS
VL: EIVMTQSPATLSVSPGERATLSCRASQSIGTNIHWYQQKPGQAPRLLIYYASESISGIPARFSGSGSGTEFTLTISSLQSEDFAVYYCQQSDSWPTTFGGGTKVEIK
notes: Retains 5 murine heavy chain framework residues; 100% human light chain framework; also called Clone ID #136; Humanized clone 136
B1: the 50% effective concentration (EC50 (read off the curve)) is approximately 0.03 µg/mL.
